B1: FAM46C (parent)
chain: FDHLQNRLIATKNPEEIRGGGLLK
B2: TPPP (parent)
chain: LCKDCQVIDGRNVTVTDVDIVFSK

Variants of: B1
Test: protein stability index of a GFP-peptide fusion (GPS, HEK-293T) (PSI 1-6); higher = more stable
Details: c terminus: a fixed tail appended
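Further: lentivirally expressed fusions sorted by FACS into six bins by GFP to DsRed ratio, PSI derived from sequencing read proportions per bin multiplied by bin number.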

Question: Which protein stability index does the source give for L8D here?
Answer: 5.05

Question: With D2A as the variant, how does the protein stability index read?
Answer: 2.78

Question: With F1K as the variant, how does the protein stability index read?
Answer: 4.45

Question: Which protein stability index does the source give for F1S here?
Answer: 4.09

Question: For K12C, which protein stability index is on record?
Answer: 2.9

Question: Which protein stability index does the source give for K12T here?
Answer: 3.75

Question: Which protein stability index does the source give for E15P here?
Answer: 3.13

Question: Which protein stability index does the source give for E15S here?
Answer: 3.75

Question: Which protein stability index does the source give for L4F here?
Answer: 3.87

Question: Which protein stability index does the source give for L4Y here?
Answer: 3.85

Question: For G20M, which protein stability index is on record?
Answer: 2.76

Question: Which protein stability index does the source give for G20F here?
Answer: 2.77

Question: Which protein stability index does the source give for P14Q here?
Answer: 3.54

Question: Which protein stability index does the source give for I9F here?
Answer: 3.53

Question: Which protein stability index does the source give for I9L here?
Answer: 4.44

Question: With I9N as the variant, how does the protein stability index read?
Answer: 4.06

Question: With I9W as the variant, how does the protein stability index read?
Answer: 2.16

Question: With T11W as the variant, how does the protein stability index read?
Answer: 3.98

Question: Which protein stability index does the source give for T11M here?
Answer: 3.7

Question: Which protein stability index does the source give for A10Q here?
Answer: 2.25

Question: Which protein stability index does the source give for A10Y here?
Answer: 1.87

Question: Which protein stability index does the source give for R18N here?
Answer: 3.83

Question: Which protein stability index does the source give for R18M here?
Answer: 3.03

Question: With E16Y as the variant, how does the protein stability index read?
Answer: 3.91

Question: Which protein stability index does the source give for E16D here?
Answer: 4.13

Question: For G19F, which protein stability index is on record?
Answer: 1.73

Question: For G19D, which protein stability index is on record?
Answer: 4.6

Question: For G19N, which protein stability index is on record?
Answer: 3.79

Question: With G19V as the variant, how does the protein stability index read?
Answer: 3.18

Question: Which protein stability index does the source give for N13C here?
Answer: 3.15

Question: For L23F, which protein stability index is on record?
Answer: 3.36

Question: With L23D as the variant, how does the protein stability index read?
Answer: 4.65

Question: With L23K as the variant, how does the protein stability index read?
Answer: 5.07

Question: With Q5H as the variant, how does the protein stability index read?
Answer: 3.87

Question: With K24R as the variant, how does the protein stability index read?
Answer: 3.35

Question: Which protein stability index does the source give for K24F here?
Answer: 2.2

Question: For K24A, which protein stability index is on record?
Answer: 2.94

Question: For K24D, which protein stability index is on record?
Answer: 3.51

Question: For R7G, which protein stability index is on record?
Answer: 3.09

Question: For I17T, which protein stability index is on record?
Answer: 4.01

Question: For I17K, which protein stability index is on record?
Answer: 3.39

Question: Which protein stability index does the source give for L22T here?
Answer: 4.34

Question: For L22F, which protein stability index is on record?
Answer: 2.76

Variants of: B2
Test: as above
Details: c terminus: a fixed tail appended

Question: For D17W, which protein stability index is on record?
Answer: 2.1

Question: With D17V as the variant, how does the protein stability index read?
Answer: 2.65

Question: For V18S, which protein stability index is on record?
Answer: 3.12

Question: For V18T, which protein stability index is on record?
Answer: 3.69

Question: For V18G, which protein stability index is on record?
Answer: 3.11

Question: For V18H, which protein stability index is on record?
Answer: 2.91

Question: Which protein stability index does the source give for V18D here?
Answer: 3.58

Question: For V18F, which protein stability index is on record?
Answer: 2.54

Question: For V18W, which protein stability index is on record?
Answer: 2.23

Question: For V18N, which protein stability index is on record?
Answer: 3.79

Question: Which protein stability index does the source give for V18Y here?
Answer: 2.6

Question: For V13M, which protein stability index is on record?
Answer: 2.54

Question: Which protein stability index does the source give for V13R here?
Answer: 3.03

Question: Which protein stability index does the source give for V13W here?
Answer: 3.13

Question: With V13A as the variant, how does the protein stability index read?
Answer: 2.75

Question: With V13H as the variant, how does the protein stability index read?
Answer: 2.32

Question: For V13T, which protein stability index is on record?
Answer: 2.38

Question: For V13D, which protein stability index is on record?
Answer: 3.04

Question: Which protein stability index does the source give for D19F here?
Answer: 2.45

Question: For D19P, which protein stability index is on record?
Answer: 2.56

Question: Which protein stability index does the source give for D19T here?
Answer: 1.42

Question: Which protein stability index does the source give for D19N here?
Answer: 2.13

Question: With D19R as the variant, how does the protein stability index read?
Answer: 1.36

Question: Which protein stability index does the source give for D19W here?
Answer: 2.96

Question: Which protein stability index does the source give for D4I here?
Answer: 2.02

Question: Which protein stability index does the source give for D4F here?
Answer: 1.93

Question: For D4L, which protein stability index is on record?
Answer: 1.83

Question: For D4Q, which protein stability index is on record?
Answer: 1.97

Question: For D4C, which protein stability index is on record?
Answer: 2.35

Question: Which protein stability index does the source give for D4A here?
Answer: 1.76

Question: Which protein stability index does the source give for V21C here?
Answer: 2.53

Question: For V21D, which protein stability index is on record?
Answer: 4

Question: With V21N as the variant, how does the protein stability index read?
Answer: 3.45

Question: Which protein stability index does the source give for V21M here?
Answer: 1.96

Question: Which protein stability index does the source give for K24N here?
Answer: 3.05

Question: With K24C as the variant, how does the protein stability index read?
Answer: 2.02

Question: With K24T as the variant, how does the protein stability index read?
Answer: 1.97

Question: With G10K as the variant, how does the protein stability index read?
Answer: 2.88

Question: Which protein stability index does the source give for G10R here?
Answer: 2.51

Question: For G10Q, which protein stability index is on record?
Answer: 2.47

Question: Which protein stability index does the source give for G10V here?
Answer: 2.34

Question: With C5R as the variant, how does the protein stability index read?
Answer: 3.38

Question: For C5Q, which protein stability index is on record?
Answer: 3.75

Question: Which protein stability index does the source give for C5I here?
Answer: 2.6

Question: For C5E, which protein stability index is on record?
Answer: 4.32

Question: Which protein stability index does the source give for C5A here?
Answer: 3.62

Question: Which protein stability index does the source give for C5W here?
Answer: 2.28

Question: Which protein stability index does the source give for C5F here?
Answer: 2.54

Question: With T16L as the variant, how does the protein stability index read?
Answer: 1.72

Question: For T16A, which protein stability index is on record?
Answer: 2.23

Question: For T16K, which protein stability index is on record?
Answer: 3.06

Question: With T16C as the variant, how does the protein stability index read?
Answer: 1.72

Question: With T16R as the variant, how does the protein stability index read?
Answer: 2.44

Question: With F22Y as the variant, how does the protein stability index read?
Answer: 2.84

Question: Which protein stability index does the source give for F22C here?
Answer: 3.38

Question: With F22H as the variant, how does the protein stability index read?
Answer: 4.43

Question: Which protein stability index does the source give for F22T here?
Answer: 3.48

Question: With F22K as the variant, how does the protein stability index read?
Answer: 3.94

Question: With F22V as the variant, how does the protein stability index read?
Answer: 2.53

Question: With F22G as the variant, how does the protein stability index read?
Answer: 4.09

Question: Which protein stability index does the source give for K3N here?
Answer: 2.95

Question: For K3R, which protein stability index is on record?
Answer: 2.15

Question: With K3F as the variant, how does the protein stability index read?
Answer: 1.65

Question: For V15N, which protein stability index is on record?
Answer: 2.95

Question: For V15P, which protein stability index is on record?
Answer: 4.11

Question: For V15T, which protein stability index is on record?
Answer: 2.96

Question: With V15F as the variant, how does the protein stability index read?
Answer: 2.54

Question: With V15K as the variant, how does the protein stability index read?
Answer: 2.89

Question: With V15G as the variant, how does the protein stability index read?
Answer: 2.65

Question: Which protein stability index does the source give for N12I here?
Answer: 1.53

Question: Which protein stability index does the source give for N12L here?
Answer: 2.57

Question: Which protein stability index does the source give for N12K here?
Answer: 2.52

Question: Which protein stability index does the source give for N12Y here?
Answer: 2.66

Question: With N12V as the variant, how does the protein stability index read?
Answer: 1.71

Question: Which protein stability index does the source give for S23C here?
Answer: 3.21

Question: For S23W, which protein stability index is on record?
Answer: 2.31

Question: With S23I as the variant, how does the protein stability index read?
Answer: 2.1

Question: Which protein stability index does the source give for S23H here?
Answer: 3.26

Question: With L1R as the variant, how does the protein stability index read?
Answer: 1.57

Question: For L1P, which protein stability index is on record?
Answer: 2.85

Question: For L1S, which protein stability index is on record?
Answer: 2.91

Question: Which protein stability index does the source give for Q6S here?
Answer: 2.61

Question: With Q6E as the variant, how does the protein stability index read?
Answer: 2.9

Question: Which protein stability index does the source give for Q6A here?
Answer: 2.05

Question: For Q6W, which protein stability index is on record?
Answer: 2.17

Question: Which protein stability index does the source give for Q6P here?
Answer: 3.16

Question: For T14V, which protein stability index is on record?
Answer: 1.72

Question: With T14Y as the variant, how does the protein stability index read?
Answer: 2.15

Question: With T14F as the variant, how does the protein stability index read?
Answer: 1.91

Question: With T14I as the variant, how does the protein stability index read?
Answer: 2.76

Question: Which protein stability index does the source give for T14A here?
Answer: 2.81

Question: Which protein stability index does the source give for D9R here?
Answer: 2.53

Question: With D9T as the variant, how does the protein stability index read?
Answer: 2.99

Question: Which protein stability index does the source give for D9K here?
Answer: 2.48

Question: With D9Q as the variant, how does the protein stability index read?
Answer: 2.76

Question: Which protein stability index does the source give for D9A here?
Answer: 1.96

Question: Which protein stability index does the source give for D9S here?
Answer: 2.45

Question: For D9P, which protein stability index is on record?
Answer: 2.65

Question: For D9W, which protein stability index is on record?
Answer: 1.84

Question: Which protein stability index does the source give for R11I here?
Answer: 1.68

Question: Which protein stability index does the source give for R11Y here?
Answer: 1.55

Question: For R11S, which protein stability index is on record?
Answer: 2.58

Question: For R11D, which protein stability index is on record?
Answer: 3.54

Question: With R11Q as the variant, how does the protein stability index read?
Answer: 2.35

Question: For C2R, which protein stability index is on record?
Answer: 2.79

Question: Which protein stability index does the source give for C2F here?
Answer: 2.48

Question: With C2L as the variant, how does the protein stability index read?
Answer: 3.09

Question: Which protein stability index does the source give for C2T here?
Answer: 3.61

Question: Which protein stability index does the source give for C2E here?
Answer: 4.36

Question: For C2S, which protein stability index is on record?
Answer: 3.54

Question: Which protein stability index does the source give for C2A here?
Answer: 3.56

Question: Which protein stability index does the source give for C2H here?
Answer: 3.42

Question: With C2P as the variant, how does the protein stability index read?
Answer: 4.04

Question: For C2D, which protein stability index is on record?
Answer: 4.08

Question: With C2K as the variant, how does the protein stability index read?
Answer: 3.07

Question: Which protein stability index does the source give for V7G here?
Answer: 2.59

Question: For V7R, which protein stability index is on record?
Answer: 2.8

Question: Which protein stability index does the source give for V7Y here?
Answer: 1.53

Question: Which protein stability index does the source give for I20D here?
Answer: 3.46

Question: Which protein stability index does the source give for I8E here?
Answer: 3.21

Question: With I8Q as the variant, how does the protein stability index read?
Answer: 3.14

Question: With I8M as the variant, how does the protein stability index read?
Answer: 2.81

Question: With I8C as the variant, how does the protein stability index read?
Answer: 2.3

Question: Which protein stability index does the source give for I8K here?
Answer: 2.6

— the supplement of paper PMC10567573
